What is called stoichiometry N is the number of molecules, sites or subunits per partner or assembly.

The source of these data is PMC9234588.

Test [1] deals with Fluorescently labelled MukB (MukB-Cy5) (E. coli) (UniProt P22523). The experiment in a line: single-molecule TIRF fluorescence intensity counting; MukB-Cy5 on 'bulbs' of doubly tethered λDNA; 10 nM MukB incubated with DNA at 50 mM NaCl until compacted, then 10 nM MukF, 20 nM MukE and 1 mM ATP-Mg2+ flowed in; number from the intensity against that of a single MukB bound to glass; 107 DNAs.

For test [2], the target named is MukB^EQ-Cy5 (EQ MukB mutant, binds but cannot hydrolyse ATP) (E. coli) (UniProt P22523). Kind of test: single-molecule TIRF fluorescence intensity counting; MukB^EQ-Cy5 with MukE, truncated monomeric MukF (MonoMukF) and ATP-Mg2+ on doubly tethered λDNA, 150 mM NaCl buffer, ~1 pN of applied force; 164 clusters.

With “Fluorescently labelled MukB (MukB-Cy5) (from UniProt P22523 1-1486) (natural protein)”, in test [1], the stoichiometry N lay in the range of 2 to 4.
Consider “MukB^EQ-Cy5 (EQ MukB mutant, binds but cannot hydrolyse ATP) (from UniProt P22523 1-1486) (natural protein)”, for which the stoichiometry N in test [2] stood at 2.
